# Laboratory results taken from the nanobody polyreactivity screen of Harvey et al. (2022).
# Test: yeast display, Sf9 membrane polyspecificity reagent, FACS + sequencing; frameworks hold sequencing errors
# Method in brief: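 In a synthetic yeast display library (Saccharomyces cerevisiae BJ5465), nanobody expression was induced with galactose for 36–48 hours. FACS gates were set low and high (top ~1%) using anti-HA fluorescence for expression and streptavidin fluorescence for binding of the Sf9 membrane reagent. Each polyreactivity label is drawn from the gate of origin.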
row,Sequence,polyreactivity (PSR sort gate)
1,QVQLVESGGGLVQAGASLRLSCAASGRNFHTYGMGWYRQAPGKESELVAAITWTGGSTYYADSVKGRFTISRDNAKNTVYLQMNSLKPEDTAVYYCAADYPRDIIGSMDYWGQGTQVSVSS,low polyreactivity
2,QVQLVESGGGLVQAGASLRLSCAASGRTFRYYAMGWYRQEPGKERELVAAITSGGSTYYADSVKGRFTISRDNAKKTVYLQMNSLKPEVTAVYYCAAVPAGLWGTYPQFRYGYWGQGTQVTVSS,high polyreactivity
3,QVQLVESGGGLVQAGASLRLSCAASGRTFWKYVMGWYRQAPGKDRLLVAVISRPAGSTYYADSVKGRFTISRDNAKNTVYLQMNSLKPEDTAVYYCAKRPKNKPVLGDFDHWGQGTQVTVSS,low polyreactivity
4,QVQLVESGGGLVQAGASLRLSCAASGSIFGVNAMGWYRQAPGKERELVAAISVSGGRTYYADSVKGRFTISRDNAKNTVYLLMNSLKPEDTAVYYCAATTYIWPYDYWGQGTQVTVSS,low polyreactivity
5,QVQLVESGGGLVQAGASLRLSCAASGSIFRRNAMGWYRQAPGKERELVAAISYRGGSTNYADSVKGRFTISRDNAKNTVYLQMNSLKPEDTAVYYCAAKIYRSSGQGMDYWGQGTQVTVSS,low polyreactivity
6,QVQLVESGGGLVQAGASLRLSCAASGSIFVRNAMGWYRQAPGKERELVAAISKRGTSTYFADSVKGRFTISRDNAKNTVYLQMNSLKPEDTAVYYCNAVLSNSRSYLIRLDYWGQGTQVTVSS,high polyreactivity
7,QVQLVESGGGLVQAGASLRLSCAASGSISKSYAMGWYRQAPGKERELVAAMSWRGGSTYADSVKGRFTISRDNAKNTVYLLMNCLKPEDSAVYYCAATNYGTFWGGQSERYDYWGQGTQVTVSS,low polyreactivity
8,QVQLVESGGGLVQAGASLRLSCAASGSTFDYYAMGWSRQAPGKELELVDAISRGGSTNYADSVKGRFTISRDNAKNSVYLQMNILKPEDTAVYYCAAAPTYRWHDGYWGQGTQVTVSS,low polyreactivity
9,QVQLVESGGGLVQAGASLRLSCAPSASIFSYNAMGWYSQAPGKERELVAAIDWSGGSTYYADSVKGRFTISRDNAKNTVYLQMNSLKPEDTEVYYCNAVGVFYYSYHYHQSDYWGQGTQVTVSS,low polyreactivity
10,QVQLVESGGGLVQAGASLRLSCAPSGSTFYPNSMAWYRQSPGKERHLVDAITSGGSTYYADSVKGRFTISRDNSKNTVYLQMNSLKPEDTAVYYCAAQRRYHQDTTIAPGNYYYWGQGTQVTVSS,low polyreactivity
11,QVQLVESGGGLVQAGASLRLSCASSGSISKSYAMGWYRQAPGKERELVAAISWRGGSTYADSVKGRFTISRDNAKNTVYLQMNSLKPVDTAVYYCAATNYGTFWVGQSERYDYWGQGTEVTVSS,low polyreactivity
12,QVQLVESGGGLVQAGASLRLSCPPSGFIFSLYAMGWYSQAPGKERELVADISWGDGTTYYADSVKGRFTISRDNAKNTVYLQMNSLKPEDTAVYYCAADSVSNWYWFNYWGQGTQVTVSS,high polyreactivity
13,QVQLVESGGGLVQAGCNLRISCAASGSTFTLYAMGWYRQAPGKERELVAGITYSGGSTFYADSVKGRFTISRDNAKNTVYLQMKSVKPEDTAVYFCGDVYVPYYWLGRSRGLYYWGQGTQVTVSS,high polyreactivity
14,QVQLVESGGGLVQAGCRLRLSCAASGITFYSYAMGWYRQAPGKERELVAAITLTGGTTYYADSVKGRFTISRDNAKNTVYLQMNSLKPEDTAVSYCAAQYWWWSRFEYDSWGQGTQVTVSS,low polyreactivity
15,QVQLVESGGGLVQAGCSLLLSCAASGRLFSLNAMGWYRQAPGKERELVAAITRSAASTHYADSEKGRFTISRDNAKNTVYLQMNSLKPEDTAVYYCAARFWYDYRHYDYWGQGTEVTVSS,low polyreactivity
16,QVQLVESGGGLVQAGCSLRISCAASGRTFSVYTMGWYRQAPGKERELVAAIRGRGGSTYYADSVKGRFTISRDNAKIPVYLQMNSLKPEDTAVYYCAARASIFGATFDYWGQGTQVTVSS,high polyreactivity
17,QVQLVESGGGLVQAGCSLRISCAASGSTFYPYAMGWYRQAPGKERELVAAISSGGSTYYADSVKGRFTISRDNAKNTVYLQMNSVKPEDTAVYYCAADFYYAYYWGQGTQVTVSS,low polyreactivity
18,QVQLVESGGGLVQAGCSLRLICAASGFTFGRNAMGWYRQAPGKEREFVADISGSVGSTYYADSVKGRFTISRDNAKNTVYLQMNSLKPEDTAVYYCAADTLYTRWEFDYWGQGTLVTVSS,high polyreactivity
19,QVQLVESGGGLVQAGCSLRLICAASGIIFVGYAMGWYRQAPGKDRELVAGINSGGSTNYADSVKGRFTISRDNAKNTVYLQMNSLKPEDTAVYYCAAYPYYYYGYDYWGQGTQVTVSS,low polyreactivity
20,QVQLVESGGGLVQAGCSLRLSCAASGFIFGRYTMGWYRQAPGKERELVAAISGSDVSTYYADSVKGRFTISRDNAKNTVYLQMNSLKPEDTAVYYCNAGPWWYLHEYDYWGQGTQVTVSS,low polyreactivity
21,QVQLVESGGGLVQAGCSLRLSCAASGFIFVRNAMGWYRQAPGKERELVAAISSSGGSTNYADSVKGRFTISRDNAKNTVYLQMNSLKPEDTAVYYCNAQRYYDYWGQGTQVTVSS,high polyreactivity
22,QVQLVESGGGLVQAGCSLRLSCAASGFTFDDYAMGWYRQAPGKERELVAAISWSGGSTYYADSVKGRFTISRDNAKNTVYLQMNSLKPEDTAVYYCAALRTGAQYSTMDYWGQGTQVTVSS,low polyreactivity
